Assay results reported in the supplement of paper PMC9732359.
± gives the uncertainty stated by the source.

Assay: protein stability index of a GFP-peptide fusion (yeast GPS) (PSI 1-4); higher = more stable; sorted into four equal gates, so the index is relative within each strain
How it was run: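 Tiled 17-residue peptides from yeast proteins were fused downstream of GFP on a plasmid that also expresses Cherry, and the pooled library was carried in yeast. Mid-log cultures grown in leucine-free medium were sorted into four equal gates by GFP/Cherry fluorescence ratio. Plasmids from each gate were PCR-amplified and Illumina-sequenced, and reads were assigned to strains by barcodes. Each peptide's protein stability index is the sum, over gates, of the gate's read frequency multiplied by its gate number.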

Row | Sequence | protein stability index (doa10∆) | protein stability index (pdr5∆) | protein stability index (san1∆) | protein stability index (ubr1∆)
1 | QTYINQELGFCELLKLT [SSN2] | 2.81 ± 0.24 | 2.45 ± 0.12 | 2.39 ± 0.17 | 2.67 ± 0.093
2 | SQLLLERLMISSDAFEV [RET1] | 1.8 ± 0.08 | 2.4 ± 0.044 | 1.98 ± 0.058 | 1.86 ± 0.049
3 | NFIEPGINQILGNEKNQ [CDC53] |  |  |  | 2.75 ± 0.2
4 | TISKTVSSTIPRETIPF [FAS2] | 2.96 ± 0.072 | 2.96 ± 0.084 | 2.75 ± 0.11 | 2.71 ± 0.052
5 | YRSHIFATNEERQMNFL [SWI3] | 3.24 ± 0.091 | 2.69 ± 0.081 | 2.59 ± 0.081 | 2.72 ± 0.051
6 | KDSYVRIANIEQNHLDN [YDL088C/ASM4] | 3.12 ± 0.14 | 3.43 ± 0.28 | 3.05 ± 0.13 | 3.18 ± 0.13
7 | RTLTAVHDKVLEDMVFP [RPS7B] | 3 ± 0.081 | 3.09 ± 0.069 | 2.81 ± 0.068 | 3.27 ± 0.074
8 | IHQNAGRLLRAMFEICL [BRR2] | 1.85 ± 0.053 | 1.75 ± 0.054 | 2.21 ± 0.063 | 2.83 ± 0.048
9 | REKLAEVYKAEKDAVSV [RPS24A] | 3.27 ± 0.11 | 3.17 ± 0.069 | 3.45 ± 0.054 | 3.33 ± 0.11
10 | VNCFHEDTELYQELIKN [YJL039C/NUP192] | 2.13 ± 0.12 | 2.82 ± 0.16 | 2.83 ± 0.081 | 2.67 ± 0.056
11 | VKTSPDAKKCIAACTGV [FAS1] | 2.41 ± 0.12 | 3.02 ± 0.16 | 3.01 ± 0.24 | 2.48 ± 0.08
12 | NSQERVQDLGSAISVTN [SIR2] | 2.45 ± 0.16 | 3.11 ± 0.11 | 3.01 ± 0.092 | 3.25 ± 0.19
13 | KKNPNWLEEYHPKLIKN [FAS1] | 2.05 ± 0.087 | 1.94 ± 0.061 | 1.97 ± 0.084 | 2.14 ± 0.046
14 | EDEFIVQHDQILVMETS [SWP82] | 2.95 ± 0.069 | 2.54 ± 0.063 | 2.33 ± 0.082 | 2.98 ± 0.048
15 | NALTVGDFDKFDSLIKV [RPN9] | 2.14 ± 0.13 | 1.59 ± 0.11 | 1.3 ± 0.14 | 1.3 ± 0.11
16 | VAEIVQNVISLGSLTVE [RPC82] | 1.97 ± 0.068 | 2.23 ± 0.098 | 1.97 ± 0.14 | 1.68 ± 0.11
17 | LYSVKFAPAHLGLKLAC [YGL100W/SEH1] | 2.73 ± 0.074 | 1.98 ± 0.049 | 2.72 ± 0.072 | 2.79 ± 0.046
18 | TGNIKHEDLVNSIESKN [COR1] | 3.13 ± 0.093 | 2.99 ± 0.11 | 3.2 ± 0.075 | 2.96 ± 0.087
19 | AICRYANVIKALAFCEI [RRP4] | 1.42 ± 0.069 | 2.04 ± 0.099 | 1.66 ± 0.18 | 2.22 ± 0.072
20 | QTARKSTGGKAPRKQLA [HHT1] | 3.18 ± 0.11 | 3.29 ± 0.098 | 3.05 ± 0.072 | 3.37 ± 0.086
21 | GSKMEAKNEDDPAHSLN [AAR2] | 2.34 ± 0.14 | 1.27 ± 0.13 | 1.23 ± 0.26 | 1.14 ± 0.15
22 | MNLQNNVLNQIHQILLP [CSE2] | 2.73 ± 0.062 | 2.73 ± 0.071 | 2.24 ± 0.12 | 3.21 ± 0.12
23 | AVAVVVDPIQSVKGKVV [RPN11] | 2.22 ± 0.1 | 2.64 ± 0.14 | 2.29 ± 0.094 | 2.84 ± 0.18
24 | KGDINPEVSMIRDIREK [RPB2] | 3.29 ± 0.16 | 2.36 ± 0.082 | 3.4 ± 0.075 | 2.68 ± 0.13
25 | LTNLLSQLNIQLSQDEH [SRP72] | 3.01 ± 0.048 | 3.03 ± 0.051 | 3.21 ± 0.046 | 3.09 ± 0.042
26 | NYNDLIVNYEDLATTQA [BRN1] | 2.98 ± 0.07 | 3.1 ± 0.087 | 3.34 ± 0.047 | 3.27 ± 0.061

Row | Sequence | protein stability index (doa10∆) | protein stability index (pdr5∆) | protein stability index (san1∆) | protein stability index (ubr1∆)
27 | VKVQPEGKYIVDVAKDI [RPT6] | 3.35 ± 0.12 | 3.14 ± 0.17 | 3.29 ± 0.038 | 3.16 ± 0.11
28 | VDKIFEKVNNNATLTPN [SWI1] | 3.09 ± 0.079 | 3.08 ± 0.073 | 3.22 ± 0.069 | 3.15 ± 0.051
29 | YEAGASHGNPVVDFLKR [FAS1] | 3.17 ± 0.09 | 3.13 ± 0.099 | 3.35 ± 0.07 | 3.25 ± 0.044
30 | VPQTEEARAEAINLMGV [RPO31] | 3.15 ± 0.11 | 2.97 ± 0.1 | 3 ± 0.085 | 3.12 ± 0.052
31 | SHVENLEEKLYQMQSNY [YIL149C/MLP2] | 2.45 ± 0.051 | 2.84 ± 0.05 | 2.54 ± 0.05 | 2.86 ± 0.044
32 | ILPTDGSAEFNVKYRAV [RPB7] | 2.57 ± 0.2 |  | 3.08 ± 0.13 | 3.48 ± 0.22
33 | NYIPGNPLVTPASIVPE [COB] | 1.81 ± 0.068 | 2.36 ± 0.071 | 2.42 ± 0.1 | 2.56 ± 0.086
34 | FIKEIHKSIELISNLLF [YCS4] | 1.89 ± 0.047 | 2.16 ± 0.051 | 2.48 ± 0.052 | 2.46 ± 0.034
35 | LADDDEERFSELFKGYL [RPL5] | 1.59 ± 0.13 | 2.05 ± 0.14 | 2.84 ± 0.2 | 3.01 ± 0.28
36 | NIPWDVPGMPAPIKKII [PRP8] | 2.75 ± 0.3 | 2.91 ± 0.19 | 2.8 ± 0.28 | 3.05 ± 0.2
37 | DDPLENMFGDYSNEPFN [SNF6] | 2.98 ± 0.087 | 2.81 ± 0.069 | 3.26 ± 0.085 | 3.16 ± 0.058
38 | AKWAPTLRTISFKGSPN [SNF2] | 3.02 ± 0.16 | 3.11 ± 0.27 | 2.77 ± 0.15 | 2.51 ± 0.14
39 | KEKLIGWYHSGPKLRAS [RPN8] | 2.16 ± 0.055 | 2.41 ± 0.045 | 2.53 ± 0.051 | 2.63 ± 0.042
40 | MDVDIGCYFEEKRYDDK [CSN12] | 3.42 ± 0.087 | 3.19 ± 0.15 | 3.01 ± 0.11 | 3.33 ± 0.15
41 | QSQQAQPSDVMFNDLNS [MED2] | 3.1 ± 0.057 | 3.37 ± 0.078 | 3.44 ± 0.063 | 3.11 ± 0.095
42 | PPTDTNVEESVSKADIL [POP5] | 3.21 ± 0.12 | 3.18 ± 0.12 | 2.79 ± 0.069 | 3.05 ± 0.095
43 | YMRKQVGVGKLNKLYGG [RPS19A] | 2.99 ± 0.16 | 2.48 ± 0.17 | 2.89 ± 0.14 | 3.41 ± 0.12
44 | ELSFYILYSFKLSGKLL [YML103C/NUP188] | 1.47 ± 0.043 | 1.49 ± 0.04 | 1.49 ± 0.081 | 1.74 ± 0.037
45 | NIMSASGGLFGNQQQQL [YGL172W/NUP49] | 3.25 ± 0.067 | 3.12 ± 0.086 | 3.29 ± 0.1 | 3.2 ± 0.042
46 | MSACVGQQSVEGKRIAF [RPO21] | 2.27 ± 0.26 | 1.97 ± 0.16 | 1.62 ± 0.24 | 2.63 ± 0.24
47 | AIPSRMTVAHLIECLLS [RPB2] | 1.39 ± 0.098 | 1.85 ± 0.094 | 1.39 ± 0.25 | 1.67 ± 0.09
48 | ISLVDDIINAVNEIMYK [MTW1] | 2.9 ± 0.073 | 2.91 ± 0.081 | 2.83 ± 0.053 | 3.1 ± 0.095
49 | TIFSVMVEWLESRSFSP [PRP8] | 2.13 ± 0.077 | 1.99 ± 0.094 | 2.15 ± 0.15 | 1.88 ± 0.059
50 | PLVIRRYLPDGSFEDWS [RPO26] | 3.43 ± 0.18 | 3.27 ± 0.18 | 3.44 ± 0.068 | 
51 | LKIQFILSTTLDPTDDE [SIN4] | 2.04 ± 0.1 | 2.33 ± 0.081 | 2.12 ± 0.067 | 2.81 ± 0.099
